Laboratory results: publication PMC7170535

How the values were obtained:
[1] = molecular target: recombinant inter-α-inhibitor heavy chain 1 (rHC1), D298A MIDAS mutant (human) (UniProt P19827); test: SPR; 1,500 RU rHC1 proteins immobilised on a C1 chip by amide cross-linking; ligand as analyte; HEPES-buffered saline pH 7.5, 0.05% Tween 20, 2 mM Mg2+, 2 mM Mn2+; 50 μl/min; multicycle kinetics, 1:1 Langmuir
[2] = molecular target: recombinant inter-α-inhibitor heavy chain 1 (rHC1), wild type (human) (UniProt P19827); test: as above
Chain of recombinant inter-α-inhibitor heavy chain 1 (rHC1), wild type (human) (P19827 35-672): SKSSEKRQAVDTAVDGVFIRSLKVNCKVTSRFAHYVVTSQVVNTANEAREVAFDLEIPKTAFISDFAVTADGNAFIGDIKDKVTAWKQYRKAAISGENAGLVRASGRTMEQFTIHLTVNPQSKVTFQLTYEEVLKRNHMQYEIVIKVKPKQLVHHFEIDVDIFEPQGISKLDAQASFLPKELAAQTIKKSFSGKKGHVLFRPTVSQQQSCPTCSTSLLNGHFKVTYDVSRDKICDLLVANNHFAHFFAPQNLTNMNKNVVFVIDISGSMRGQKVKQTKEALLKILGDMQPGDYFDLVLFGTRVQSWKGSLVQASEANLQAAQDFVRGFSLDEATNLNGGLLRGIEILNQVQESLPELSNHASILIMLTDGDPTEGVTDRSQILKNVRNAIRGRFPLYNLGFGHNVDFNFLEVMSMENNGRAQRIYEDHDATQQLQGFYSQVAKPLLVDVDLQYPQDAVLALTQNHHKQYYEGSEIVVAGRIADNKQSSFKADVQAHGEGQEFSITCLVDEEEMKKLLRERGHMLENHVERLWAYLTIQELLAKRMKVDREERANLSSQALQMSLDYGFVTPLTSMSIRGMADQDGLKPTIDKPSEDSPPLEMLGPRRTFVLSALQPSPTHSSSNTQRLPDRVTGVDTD

[3] = molecular target: recombinant inter-α-inhibitor heavy chain 1 (rHC1), wild type (human) (UniProt P19827); test: SPR; 1,500 RU rHC1 proteins immobilised on a C1 chip by amide cross-linking; ligand as analyte; HEPES-buffered saline pH 7.5, 0.05% Tween 20, 10 mM EDTA; 50 μl/min; multicycle kinetics, 1:1 Langmuir
complement C3 (human) = test: SPR; ~2,000 RU C3 immobilised on a CM5 chip by amide coupling; rHC1 or IαI as analyte; HEPES-buffered saline pH 7.5, 0.05% Tween 20, 2 mM Mg2+, 2 mM Mn2+; multicycle kinetics, 1:1 Langmuir

Chain of LTBP1 N-terminal region (NT1), recombinant domain (domain or fragment) (Q14766 24-1721): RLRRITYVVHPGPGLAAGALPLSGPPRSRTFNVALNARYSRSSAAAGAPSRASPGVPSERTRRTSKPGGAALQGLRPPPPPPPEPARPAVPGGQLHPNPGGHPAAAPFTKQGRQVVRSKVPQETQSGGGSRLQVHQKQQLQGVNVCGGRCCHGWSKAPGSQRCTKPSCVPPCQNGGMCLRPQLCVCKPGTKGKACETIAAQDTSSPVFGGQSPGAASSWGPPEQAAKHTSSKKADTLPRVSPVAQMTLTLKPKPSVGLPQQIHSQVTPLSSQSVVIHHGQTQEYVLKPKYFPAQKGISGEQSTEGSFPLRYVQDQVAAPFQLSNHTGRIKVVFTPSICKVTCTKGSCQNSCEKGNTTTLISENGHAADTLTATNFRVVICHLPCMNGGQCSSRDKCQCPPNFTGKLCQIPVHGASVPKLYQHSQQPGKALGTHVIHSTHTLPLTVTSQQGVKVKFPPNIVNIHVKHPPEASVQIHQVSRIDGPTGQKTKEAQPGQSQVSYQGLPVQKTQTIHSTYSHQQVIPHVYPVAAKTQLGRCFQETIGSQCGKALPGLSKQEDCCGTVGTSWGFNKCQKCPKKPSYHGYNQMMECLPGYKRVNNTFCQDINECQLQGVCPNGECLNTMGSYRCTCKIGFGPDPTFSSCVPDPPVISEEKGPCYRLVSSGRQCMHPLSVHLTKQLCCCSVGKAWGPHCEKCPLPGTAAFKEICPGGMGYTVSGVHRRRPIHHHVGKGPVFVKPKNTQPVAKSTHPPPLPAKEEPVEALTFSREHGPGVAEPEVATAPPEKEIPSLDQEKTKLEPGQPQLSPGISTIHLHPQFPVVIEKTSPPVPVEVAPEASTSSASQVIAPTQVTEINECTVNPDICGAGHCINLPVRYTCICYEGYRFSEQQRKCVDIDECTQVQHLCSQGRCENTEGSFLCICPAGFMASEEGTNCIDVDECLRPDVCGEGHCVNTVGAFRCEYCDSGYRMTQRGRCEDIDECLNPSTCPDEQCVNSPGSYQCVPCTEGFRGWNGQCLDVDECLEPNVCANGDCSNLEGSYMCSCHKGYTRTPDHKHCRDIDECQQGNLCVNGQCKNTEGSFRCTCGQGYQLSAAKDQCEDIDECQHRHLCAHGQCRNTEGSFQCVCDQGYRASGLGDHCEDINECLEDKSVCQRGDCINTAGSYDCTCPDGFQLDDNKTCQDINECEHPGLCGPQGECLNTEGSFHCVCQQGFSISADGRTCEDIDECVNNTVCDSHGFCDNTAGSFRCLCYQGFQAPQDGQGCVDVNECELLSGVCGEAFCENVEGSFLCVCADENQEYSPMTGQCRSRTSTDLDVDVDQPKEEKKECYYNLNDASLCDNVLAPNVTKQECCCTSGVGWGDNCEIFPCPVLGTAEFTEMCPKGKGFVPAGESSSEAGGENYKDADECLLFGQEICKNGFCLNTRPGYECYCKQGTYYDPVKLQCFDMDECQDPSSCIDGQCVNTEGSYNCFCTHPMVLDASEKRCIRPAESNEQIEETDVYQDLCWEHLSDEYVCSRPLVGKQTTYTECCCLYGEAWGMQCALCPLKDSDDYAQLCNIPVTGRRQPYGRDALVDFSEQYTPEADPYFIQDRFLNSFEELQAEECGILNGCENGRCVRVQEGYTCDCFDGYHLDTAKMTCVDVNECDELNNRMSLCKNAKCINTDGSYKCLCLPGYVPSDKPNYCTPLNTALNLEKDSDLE
Chain of recombinant inter-α-inhibitor heavy chain 1 (rHC1), D298A MIDAS mutant (human) (P19827 35-672 D298A): as the sequence (P19827 35-672) above, with D264A counted along it

Kd [1] [nM]	Kd [2] [nM]	Kd [3] [nM]	Kd (complement C3 (human)) [nM]	Substance
14.9	16.1			TGFβ1-LAP, small latent complex of TGFβ1 (from UniProt P01137 30-278)
	4.6	5.1		LTBP1 N-terminal region (NT1), recombinant domain (domain or fragment)
			659	inter-α-inhibitor (IαI) (from UniProt P19827 35-672; P19823 55-702) (complex)
